The numbers were not newly measured in paper PMC2695410, which cites them from elsewhere.

This data set has as its target Calmodulin (Bos taurus) (UniProt P62157).

The term Kd denotes a measure of binding affinity in units of concentration. “Aquaporin 0 C-terminal peptide C-terminus (from UniProt P30301)”: the Kd was 480 nM.
